This is an account of results in patent US20150320880A1, “ANTIBODY DRUG CONJUGATES” (NOVARTIS AG, priority 2013, published 2015).

The test system of assay [1] is Uke-1 cells. The assay is described as follows: ADCC activity in vitro (Calcein release, NK3.3 effector cells). It counts as cell-based. As to conditions: effector to target ratio 20 to 1. The protocol: In brief, Uke-1 cells were stained with Calcein acetoxy-methyl ester (Calcein-AM; Sigma-Aldrich catalog #17783-5MG, St. Louis, Mo.), washed twice, pipetted into a 96-well microtiterplate (96 well, U-bottomed, clear plastic; Corning Costar, catalog #650 160, Tewksbury, Mass.) at a concentration of 5000 cells per well and pre-incubated for 10 min with a serial dilution of the above mentioned antibodies and proteins (from 50,000 to 0.003 μg per ml) before adding the effector NK3.3 cells for 1 hour in an effector to target ratio of 20 to 1. In order to calculate the antibody specific lysis of the target cells, a parallel incubation of target cells only without antibody or effector cells served as a baseline and negative control, whereas the positive control or maximal lysis or hundred percent specific lysis was determined by lysis of target cells only with a 1% Triton-X 100 solution. […] Following a co-incubation of target and effector cells, the microtiterplate was centrifuged and an aliquot of the supernatant fluid was transferred to another microtiterplate (96 well, flat-bottomed, black with clear bottom; (Corning Costar, catalog #3904, Tewksbury, Mass.) and the concentration of free Calcein in solution was determined with a fluorescence counter (Victor 3 ® multilabel counter, Perkin Elmer, Waltham, Mass.).

Assay [2] deals with T1, human cKIT ECD (Homo sapiens, UniProt P10721).
T1 construct: Human cKIT tr. variant 2, residues 26-520-TAG; made in house; host or cells: HEK293 derived cell lines (293FS), transient transfection
T1 sequence (P10721 with tags, fused parts or gaps isoform P10721-2): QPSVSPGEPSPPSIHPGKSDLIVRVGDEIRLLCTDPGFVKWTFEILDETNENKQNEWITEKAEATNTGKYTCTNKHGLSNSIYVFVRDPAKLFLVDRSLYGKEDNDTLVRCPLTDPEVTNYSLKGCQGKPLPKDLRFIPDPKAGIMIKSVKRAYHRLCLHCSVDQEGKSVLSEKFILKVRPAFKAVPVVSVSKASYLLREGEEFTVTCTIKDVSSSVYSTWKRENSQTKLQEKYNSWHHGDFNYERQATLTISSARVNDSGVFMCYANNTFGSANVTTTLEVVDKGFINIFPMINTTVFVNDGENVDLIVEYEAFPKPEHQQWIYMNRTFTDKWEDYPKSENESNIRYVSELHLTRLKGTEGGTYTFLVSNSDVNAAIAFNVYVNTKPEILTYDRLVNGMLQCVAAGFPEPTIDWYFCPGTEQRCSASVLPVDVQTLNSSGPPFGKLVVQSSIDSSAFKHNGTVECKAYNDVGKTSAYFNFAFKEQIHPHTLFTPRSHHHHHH
As to the kind of experiment: SPR (Biacore 2000) affinity measurement. The format is binding. As to conditions: 25° C. Here is the method: (§1) Affinity of the antibodies to cKIT species orthologues and also to cKIT was determined using SPR technology using a Biacore® 2000 instrument (GE Healthcare, Pittsburgh, Pa.) and with CM5 sensor chips.
(§2) Briefly, HBS-P (0.01 M HEPES, pH 7.4, 0.15 M NaCl, 0.005% Surfactant P20) supplemented with 2% Odyssey® blocking buffer (Li-Cor Biosciences, Lincoln, Nebr.) was used as the running buffer for all the experiments. The immobilization level and analyte interactions were measured by response unit (RU). Pilot experiments were performed to test and confirm the feasibility of the immobilization of the anti-human Fc antibody (Catalog number BR100839, GE Healthcare, Pittsburgh, Pa.) and the capture of the test antibodies.
(§3) For kinetic measurements, the experiments were performed in which the antibodies were captured to the sensor chip surface via the immobilized anti-human Fc antibody and the ability of the cKIT proteins to bind in free solution was determined Briefly, 25 μg/ml of anti-human Fc antibody at pH 5 was immobilized on a CM5 sensor chip through amine coupling at flow rate of 5 μl/minute on all two flow cells to reach 10,500 RUs. 0.1-1 μg/ml of test antibodies were then injected at 10 μl/min for 1 minute. Captured levels of the antibodies were generally kept below 200 RUs. Subsequently, 3.125-50 nM of cKIT receptor extracellular domains (ECD) were diluted in a 2-fold series and injected at a flow rate of 40 μl/min for 3 min over both reference and test flow cells. Table of tested ECDs is listed below. Dissociation of the binding was followed for 10 min. After each injection cycle, the chip surface was regenerated with 3 M MgCl2 at 10 μl/min for 30 s.
Background: Surface plasmon resonance follows binding to a sensor surface in real time, without labels.

In assay [3] the target is mouse cKIT ECD. As to the kind of experiment: SPR (Biacore 2000) affinity measurement. It counts as binding. As to conditions: 25° C. Here is the method: as §1, §2, §3
Assay [4] deals with SCF binding to cKIT (Homo sapiens, UniProt P10721). The assay is described as follows: Competition assays (ELISA and FACS) of SCF binding to cKIT.
Sequence of SCF binding to cKIT (P10721 26-524 limits assumed): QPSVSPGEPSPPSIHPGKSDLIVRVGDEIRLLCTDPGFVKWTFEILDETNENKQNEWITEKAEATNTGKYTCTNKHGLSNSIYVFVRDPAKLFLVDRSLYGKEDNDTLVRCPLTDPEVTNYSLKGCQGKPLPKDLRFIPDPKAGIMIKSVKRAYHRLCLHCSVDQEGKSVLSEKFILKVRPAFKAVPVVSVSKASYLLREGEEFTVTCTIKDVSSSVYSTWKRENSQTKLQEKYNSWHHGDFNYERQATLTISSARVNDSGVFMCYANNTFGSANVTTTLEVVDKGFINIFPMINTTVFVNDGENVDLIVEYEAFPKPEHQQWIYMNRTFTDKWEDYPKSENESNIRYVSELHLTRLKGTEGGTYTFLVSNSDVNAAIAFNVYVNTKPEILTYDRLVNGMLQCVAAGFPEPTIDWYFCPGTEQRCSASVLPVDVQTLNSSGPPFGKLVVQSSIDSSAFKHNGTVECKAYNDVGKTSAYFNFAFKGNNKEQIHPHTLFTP
In assay [5] the test system is GIST T1 subcutaneous tumor xenograft. Conditions: Example 28, single i.v. dose: 9P3 10 mg/kg, IgG1-MCC-DM1 5 mg/kg, IgG1-SPDB-DM4 10 mg/kg, 9P3-MCC-DM1 5 and 10 mg/kg, 9P3-SPDB-DM4 2.5 and 5 mg/kg. Here is the method:
The anti-tumor activity of anti-cKIT ADCs was evaluated in several tumor xenograft models.

Assay [6] concerns the target T2, Mouse cKIT ECD, C-terminal 6x His (Sino Biological Inc, catalog number 50530-M08H) (mouse, UniProt P05532 25-527).
T2 construct: extracellular domain; Bought protein
T2 sequence (looked up): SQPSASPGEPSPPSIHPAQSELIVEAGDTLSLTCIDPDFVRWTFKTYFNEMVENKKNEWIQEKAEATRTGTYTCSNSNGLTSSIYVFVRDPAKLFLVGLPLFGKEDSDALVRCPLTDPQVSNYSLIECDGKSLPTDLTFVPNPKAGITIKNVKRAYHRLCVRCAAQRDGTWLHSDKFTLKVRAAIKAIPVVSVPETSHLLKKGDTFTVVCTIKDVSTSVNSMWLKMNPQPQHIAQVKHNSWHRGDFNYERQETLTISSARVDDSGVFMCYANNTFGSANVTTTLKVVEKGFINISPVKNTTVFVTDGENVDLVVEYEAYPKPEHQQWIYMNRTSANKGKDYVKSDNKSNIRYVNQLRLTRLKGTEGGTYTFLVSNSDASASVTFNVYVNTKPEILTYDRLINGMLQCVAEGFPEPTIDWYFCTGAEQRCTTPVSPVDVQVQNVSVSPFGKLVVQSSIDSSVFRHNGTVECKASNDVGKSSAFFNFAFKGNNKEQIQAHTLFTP
The assay is described as follows: SPR (Biacore 2000), antibody captured on anti-human Fc.

Assay [7] addresses T3, Rat cKIT D1-5 (residues 25-526, C-terminal mFc) (rat).
T3 construct: The entry includes the linker and mouse Fc tag; also called rat cKIT-mFc
T3 chain: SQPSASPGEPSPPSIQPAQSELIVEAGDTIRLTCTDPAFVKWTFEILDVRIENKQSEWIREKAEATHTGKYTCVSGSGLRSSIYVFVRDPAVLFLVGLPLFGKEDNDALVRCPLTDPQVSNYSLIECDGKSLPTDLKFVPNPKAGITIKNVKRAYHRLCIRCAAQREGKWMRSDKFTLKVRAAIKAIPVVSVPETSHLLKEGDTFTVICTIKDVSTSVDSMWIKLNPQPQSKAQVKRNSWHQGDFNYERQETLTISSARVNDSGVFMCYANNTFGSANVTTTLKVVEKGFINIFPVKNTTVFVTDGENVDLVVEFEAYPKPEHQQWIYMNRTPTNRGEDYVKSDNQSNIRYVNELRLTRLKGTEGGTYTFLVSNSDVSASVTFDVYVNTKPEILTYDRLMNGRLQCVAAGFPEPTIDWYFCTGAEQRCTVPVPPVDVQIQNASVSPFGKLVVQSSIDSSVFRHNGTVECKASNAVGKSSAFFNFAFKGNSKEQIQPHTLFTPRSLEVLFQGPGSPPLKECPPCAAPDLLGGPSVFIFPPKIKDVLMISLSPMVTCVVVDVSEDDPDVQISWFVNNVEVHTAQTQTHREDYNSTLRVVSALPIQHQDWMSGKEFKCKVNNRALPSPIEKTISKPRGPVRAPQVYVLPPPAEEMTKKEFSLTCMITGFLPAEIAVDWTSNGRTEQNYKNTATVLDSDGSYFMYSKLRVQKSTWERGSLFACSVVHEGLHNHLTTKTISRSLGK
Described as above.

Assay [8] deals with T4, Human cKIT D1-5 (human cKIT tr. variant 2, residues 26-520, C-terminal His tag) (human, UniProt P10721 26-524).
T4 construct: also called human cKIT ECD; Human c-Kit ECD
T4 sequence (P10721 other isoform, or with tags, fused parts or gaps mutant limits assumed): as the sequence (P10721 with tags, fused parts or gaps isoform P10721-2) above
The assay is described as follows: SPR (Biacore 2000), antibody captured on anti-human Fc, cKIT ECD as analyte, 25 C, 1:1 fit.

The target in assay [9] is T5, Human cKIT D1-3 (human cKIT tr. variant 1, residues 26-311, tagged) (human, UniProt P10721 26-311).
T5 construct: also called cKIT subdomains 1-3
T5 sequence (P10721 other isoform, or with tags, fused parts or gaps mutant limits assumed): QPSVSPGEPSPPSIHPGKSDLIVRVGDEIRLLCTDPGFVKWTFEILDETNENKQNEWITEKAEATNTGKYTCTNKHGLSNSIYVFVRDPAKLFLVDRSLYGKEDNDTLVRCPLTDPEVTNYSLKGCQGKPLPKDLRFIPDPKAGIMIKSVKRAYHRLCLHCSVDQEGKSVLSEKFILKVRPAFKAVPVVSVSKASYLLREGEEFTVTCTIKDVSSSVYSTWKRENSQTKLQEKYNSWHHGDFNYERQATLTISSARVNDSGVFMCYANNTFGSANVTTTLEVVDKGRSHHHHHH
As to the kind of experiment: ELISA on coated cKIT subdomain constructs (Example 6). Background: ELISA stands for enzyme-linked immunosorbent assay.

Assay [10] deals with T4, Human cKIT D1-5 (human cKIT tr. variant …). As to the kind of experiment: SPR (Biacore T100), CM5 chip, method as in Example 7; unconjugated antibody.
Assay [11] concerns the target T6, Cynomolgus monkey cKIT D1-5 (residues 25-520, C-terminal His tag) (cynomolgus monkey, UniProt P10721 25-520 (human entry)).
T6 construct: the signal peptide was not part of the protein in the assay; also called cyno cKIT; cynomolgus monkey ECD
T6 chain: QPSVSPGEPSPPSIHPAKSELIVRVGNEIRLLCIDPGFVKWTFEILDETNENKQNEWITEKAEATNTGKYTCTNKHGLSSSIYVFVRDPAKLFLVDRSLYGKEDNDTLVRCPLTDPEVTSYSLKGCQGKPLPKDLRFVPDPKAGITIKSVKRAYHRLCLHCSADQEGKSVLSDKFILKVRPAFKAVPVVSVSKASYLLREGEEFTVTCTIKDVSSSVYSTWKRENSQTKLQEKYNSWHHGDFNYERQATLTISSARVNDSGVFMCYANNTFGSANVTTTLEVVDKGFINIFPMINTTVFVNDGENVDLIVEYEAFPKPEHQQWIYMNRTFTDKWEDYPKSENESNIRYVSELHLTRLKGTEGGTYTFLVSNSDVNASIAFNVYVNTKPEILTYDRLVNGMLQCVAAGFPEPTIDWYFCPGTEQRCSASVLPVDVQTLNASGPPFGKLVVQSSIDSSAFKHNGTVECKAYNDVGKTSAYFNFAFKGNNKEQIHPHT
As to the kind of experiment: SPR (Biacore 2000), antibody captured on anti-human Fc, cKIT ECD as analyte, 25 C, 1:1 fit.

Assay [12] deals with T2, Mouse cKIT ECD, C-terminal 6x His (Sino …). The assay is described as above.

With MabCampath [reference compound], the “ADCC killing of target cells” value in assay [1] is reported as “mediated ADCC killing of the target cells”.

B1: anti-cKIT antibody 9P3 (antibody, V domains shown)
VH: EVRLVESEGGLVQPRSSMKLSCTASGFTFSDYYMAWVRQVPEKGLEWVANINYDGSSTYYLDSLKSRFIISRDNAKNILYLQMSSLKSEDTATYYCARGDYYGTTYWYFDVWGTGTTVTVSS
VL: DIQMTQTTSSLSASLGDRVTISCRASQDISNYLNWYQQKPDGTVKLLIYYTSRLQSGVPSRFSGSGSGTDYSLTISNLEQEDIATYFCQQGKKLWSFGGGTKLEIKR
notes: Hybridoma-derived mouse variable domains; also called murine 9P3
By Kd is commonly meant the constant that tells how readily two partners part at equilibrium. In the case of B1, the “Affinity human cKIT (nM)” value in assay [2] is listed as “nanomolar level”. Besides, in assay [3], the “Affinity mouse cKIT (nM)” value was “Not reactive”. For the same molecule, the “blocking of SCF binding to cKIT” value in assay [4] was “partial blocking of SCF binding to cKIT”. In addition, in [5], the “anti-tumor activity (tumor volume)” value is “Neither the control non-specific IgG1 ADCs nor the unconjugated 9P3 were efficacious”. The binding result in assay [6] and in assay [7] was “no binding (tested: 3.125-50 nM of cKIT ECD injected)” in each case. In [8], this molecule returned a Kd of 20 nM.

B2: NEG026 (antibody, human IgG1, kappa, V domains shown)
VH: EVQLVESGGGLVQPGGSLRLSCAASGFTFSDYYMAWVRQAPGKGLEWVANINQNTGSTYYVDSVQGRFTISRDNAKNSLYLQMNSLRAEDTAVYYCARGDYYGTTYWYFDVWGQGTTVTVSS
VL: EIVMTQSPATLSLSPGERATLSCRASQDISNYLNWYQQKPGQAPRLLIYYTSRLQSGIPARFSGSGSGTDYTLTISSLEPEDFAVYYCQQGKKLWSFGGGTKVEIKR
notes: Humanized, optimized variant of 9P3; human IgG1 kappa
As to B2, the binding result was “binds” in assay [9], “no binding (tested: 3.125-50 nM of cKIT ECD injected)” in assay [6] and “no binding (tested: 3.125-50 nM of cKIT ECD injected)” in assay [7].

B3: 20376 (antibody, human IgG1, lambda, V domains shown)
VH: QVQLVQSGAEVKKPGSSVKVSCKASGGTFSSYAISWVRQAPGQGLEWMGGIIPMSGRTTYAQKFQGRVTITADESTSTAYMELSSLRSEDTAVYYCARDYGPEAPDYGQSTSYFWYYAFDPWGQGTLVTVSS
VL: DIELTQPPSVSVSPGQTASITCSGDNIPSYFVHWYQQKPGQAPVLVIYDDNDRPSGIPERFSGSNSGNTATLTISGTQAEDEADYYCSSWDQDTVVFGGGTKLTVLG
notes: human IgG1 lambda
In the case of B3, in assay [7], the binding result is given as “no binding (tested: 3.125-50 nM of cKIT ECD injected)”. Moreover, the Kd in assay [10] came out at 9.1 nM; in assay [8], 9.1 nM; in assay [11], 4.8 nM; in assay [12], 2.5 nM.
